Experimental data taken from the RNAGym collection of RNA variant scans (doi:10.1093/nar/gkz1192).

B1: CPEB3 Ribozyme (parent)
chain: UAACAGGGGGCCACAGCAGAAGCGUUCACGUCGCAGCCCCUGUCAGAUUCUGGUGAAUCUGCGAAUUCUGCUGUAUAUCUC

Variants of: B1
Assay: self-cleavage, relative activity (ratio to wild type); higher = more cleavage; in vitro, sequencing
In short: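 After error-prone PCR and barcoding, CPEB3 ribozyme mutant libraries were transcribed with T7 RNA polymerase at 37°C for 5 hours, then given 15 min with DNase I before an EDTA stop, and they cleaved during both steps. Reverse transcription with template switching preceded Illumina sequencing. Relative activity divides a variant's cleaved/total read fraction by the unmutated ribozyme's. At least 5 reads were required per variant, and three batches were averaged.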

Variant | self-cleavage
G24C U49C | 0.46
U25C C37A | 0.46
U25C C37U | 0.19
U25C C79G | 0.26
U25C C79A | 0.35
U25C C79U | 0.34
U25C G36A | 0.17
U25C G36U | 0.16
U25A U26C | 0.28
U25A U26A | 0.39
U25A U26G | 0.29
U25C U72A | 0.22
U25C U72C | 0.28
U25C U72G | 0.26
U25G A35U | 0.39
U25G A35G | 0.9
G24U U54C | 0.17
G24U A75G | 0.08
U25C A57U | 0.31
U25C A57G | 0.28
U25C A57C | 0.1
U25C C71U | 0.1
U25C C71G | 0.1
U25C C71A | 0.13

Variant | self-cleavage
U25A G70U | 0.06
U25A G70C | 0.07
U25G A65G | 0.26
U25G A65U | 0.07
U25G C37U | 0.09
U25G A75G | 0.29
G24U U72C | 0.52
G24U U72A | 0.11
U25A U76C | 0.32
U25A U76A | 0.25
G24C U66C | 0.26
U25G A28U | 0.31
U25G A28G | 0.37
U25A U54G | 0.2
U25A U54A | 0.26
U25A U54C | 0.27
U25C C40U | 0.19
U25C C40A | 0.15
U25A C38A | 0.18
U25A C38U | 0.23
U25C U51C | 0.26
U25C U51G | 0.12
U25C U51A | 0.27
U25G A64U | 0.23

Variant | self-cleavage
U25G A64G | 0.24
U25C U76G | 0.45
U25C U76C | 0.3
U25C U76A | 0.33
U25G A45G | 0.29
U25G G70C | 0.33
U25A C34U | 0.56
U25A C34A | 0.4
U25A C62G | 0.39
U25A C62U | 0.19
U25A C62A | 0.16
U25C U54C | 0.27
U25C U54G | 0.31
U25C U54A | 0.28
G24U U48C | 0.12
G24C U67A | 0.21
G24C U67C | 0.11
U25A U72G | 0.06
U25A U72C | 0.22
U25A U72A | 0.3
U25C C68A | 0.24
G24U U60A | 0.16
G24C U76C | 0.2
G24U U26C | 0.11

Variant | self-cleavage
U25A U51C | 0.23
U25A U51A | 0.33
U25A G73A | 0.36
G24C U48C | 0.22
U25C U41G | 0.27
U25C U41C | 0.28
U25C U41A | 0.3
U25C U49A | 0.3
U25C U49C | 0.21
U25C G46A | 0.28
U25C G46U | 0.2
U25C G46C | 0
U25A C50A | 0.41
U25A G53A | 0.28
G24C U43A | 0.54
G24C U43C | 0.18
U25C C38A | 0.18
U25C C38U | 0.68
U25C C38G | 0.19
U25A C37U | 0.34
U25C C32A | 0.22
U25C C32U | 0.14
U25C A65U | 0.28
U25C A65G | 0.3

Variant | self-cleavage
U25C A65C | 0.45
U25A U60C | 0.21
U25A U60A | 0.29
U25C G61C | 0.15
U25C G61A | 0.15
U25C G61U | 0.17
G24U A45U | 0.18
G24U A45C | 0.22
U25G C32A | 0.26
G24U C38U | 0.1
U25G C59U | 0.21
U25C U78C | 0.24
U25C U78G | 0.22
U25C U78A | 0.25
G24C U25A | 0.21
U25C U66C | 0.27
U25C U66G | 0.69
U25C U66A | 0.35
U25A C81U | 0.57
G24U U31C | 0.37
U25C U58A | 0.29
U25C U58G | 0.33
U25C U58C | 0.26
U25A G52C | 0.27

Variant | self-cleavage
U25A G52A | 0.22
U25C U80C | 0.35
U25C U80A | 0.28
U25C G63A | 0.37
U25C G63U | 0.3
U25C G63C | 0.26
U25G C27U | 0.39
U25C A75G | 0.23
U25C A75C | 0.35
U25C A75U | 0.34
U25G C34U | 0.15
G24C U69A | 0
G24C U69C | 0.17
U25A U31A | 0.16
U25A U31C | 0.17
U25A U66C | 0.23
U25A U66A | 0.31
G24U U49A | 0.23
U25A A57G | 0.3
U25A A57U | 0.18
G24U U58C | 0.17
U25A U41A | 0.44
U25A U41G | 0.22
U25A U41C | 0.28

Variant | self-cleavage
U25C A47G | 0.27
U25C A47U | 0.23
G24U U51A | 0.1
G24U U51C | 0.2
U25A A47U | 0.27
U25A A47G | 0.33
U25C U67G | 0.11
U25C U67C | 0.2
U25C U67A | 0.25
U25A U78C | 0.13
U25A U78G | 0.37
U25A U78A | 0.19
U25C G52A | 0.26
U25C G52C | 0.58
U25C G52U | 0.29
U25A C79U | 0.27
U25C A64G | 0.3
U25C A64C | 0.45
U25C A64U | 0.26
U25A G63A | 0.28
U25A G63U | 0.2
U25C G53C | 0.15
U25C G53A | 0.43
